B1: 1573 Chimeric (antibody, V domains shown)
VH: EVKLEESGGGLVQPGGSMKLSCVASGFTFSNYYLNWVRQSPEKGLEWVADIRLKSNNYEKHYAESVKGRFTISRDDSKSSVYLQMNNLRAEDTGIYYCIREGDYFDYWGQGTTLTVSS
VL: NIVLTQSPASLAVSLGQRATISCRASESVDSFGATFMHWYQQKPGQPPKLLIYLASNLESGVPARFSGSGSRTDFTLTIDPVEADDAATYYCQQNNEDPYTFGGGTKLEIKR
notes: IgG; also called chimera 1573; 1573VH (chimeric) + 1573Vk (chimeric)
B2: 1573 mouse (antibody, V domains shown)
VH: EVKLEESGGGLVQPGGSMKLSCVASGFTFSNYYLNWVRQSPEKGLEWVADIRLKSNNYEKHYAESVKGRFTISRDDSKSSVYLQMNNLRAEDTGIYYCIREGDYFDYWGQGTTLTVSS
VL: NIVLTQSPASLAVSLGQRATISCRASESVDSFGATFMHWYQQKPGQPPKLLIYLASNLESGVPARFSGSGSRTDFTLTIDPVEADDAATYYCQQNNEDPYTFGGGTKLEIKR
notes: Parental murine monoclonal antibody; also called mouse aPC monoclonal antibody 1573; HAPC1573
B3: Hu1573-12 (antibody, V domains shown)
VH: EVQLVESGGGLVQPGGSLRLSCAASGFTFSNYYLNWVRQAPGKGLEWVADIRLKSNNYEKHYAESVKGRFTISRDDSKNSVYLQMNSLKTEDTAVYYCIREGDYFDYWGQGTTVTVSS
VL: DIVMTQTPLSLSVTPGQPASISCRASESVDSFGATFMHWYLQKPGQPPQLLIYLASNLESGVPDRFSGSGSGTDFTLKISRVEAEDVGVYYCQQNNEDPYTFGQGTKLEIKR
notes: Humanized IgG, human gamma 1 / kappa constant regions by vectors pCP-hCg1 and pCP-hck; also called H1573VH.1E + H1573Vk.2
B4: Hu1573-11 (antibody, V domains shown)
VH: EVQLVESGGGLVQPGGSLRLSCAASGFTFSNYYLNWVRQAPGKGLEWVGDIRLKSNNYEKHYAESVKGRFTISRDDSKSSLYLQMNSLKTEDTAVYYCIREGDYFDYWGQGTTVTVSS
VL: DIVMTQTPLSLSVTPGQPASISCRASESVDSFGATFMHWYLQKPGQPPQLLIYLASNLESGVPDRFSGSGSRTDFTLKISRVEAEDVGVYYCQQNNEDPYTFGQGTKLEIKR
notes: Humanized IgG, human gamma 1 / kappa constant regions by vectors pCP-hCg1 and pCP-hck; also called H1573VH.1D + H1573Vk.2B
B5: Hu1573-17 (antibody, V domains shown)
VH: EVQLVESGGGLVQPGGSLRLSCAASGFTFSNYYLNWVRQAPGKGLEWVADIRLKSNNYEKHYAESVKGRFTISRDDSKSSVYLQMNSLKTEDTAVYYCIREGDYFDYWGQGTTVTVSS
VL: DIVMTQTPLSLSVTPGQPASISCRASESVDSFGATFMHWYLQKPGQPPQLLIYLASNLESGVPDRFSGSGSRTDFTLKISRVEAEDVGVYYCQQNNEDPYTFGQGTKLEIKR
notes: Humanized IgG, human gamma 1 / kappa constant regions by vectors pCP-hCg1 and pCP-hck; also called H1573VH.1F + H1573Vk.2B
B6: Hu1573-9 (antibody, V domains shown)
VH: EVQLVESGGGLVQPGGSLRLSCAASGFTFSNYYLNWVRQAPGKGLEWVGDIRLKSNNYEKHYAESVKGRFTISRDDSKSSLYLQMNSLKTEDTAVYYCIREGDYFDYWGQGTTVTVSS
VL: DIVMTQTPLSLSVTPGQPASISCRASESVDSFGATFMHWYLQKPGQPPQLLIYLASNLESGVPDRFSGSGSGTDFTLKISRVEAEDVGVYYCQQNNEDPYTFGQGTKLEIKR
notes: Humanized IgG, human gamma 1 / kappa constant regions by vectors pCP-hCg1 and pCP-hck; also called H1573VH.1D + H1573Vk.2
B7: Hu1573-7 (antibody, V domains shown)
VH: EVQLVESGGGLVQPGGSLRLSCAASGFTFSNYYLNWVRQAPGKGLEWVADIRLKSNNYEKHYAESVKGRFTISRDDSKNSLYLQMNSLKTEDTAVYYCIREGDYFDYWGQGTTVTVSS
VL: DIVLTQTPLSLSVTPGQPASISCRASESVDSFGATFMHWYLQKPGQPPQLLIYLASNLESGVPDRFSGSGSGTDFTLKISRVEAEDVGVYYCQQNNEDPYTFGQGTKLEIKR
notes: Humanized IgG, human gamma 1 / kappa constant regions by vectors pCP-hCg1 and pCP-hck; also called H1573VH.1C + H1573Vk.2A
B8: Hu1573-13 (antibody, V domains shown)
VH: EVQLVESGGGLVQPGGSLRLSCAASGFTFSNYYLNWVRQAPGKGLEWVADIRLKSNNYEKHYAESVKGRFTISRDDSKNSVYLQMNSLKTEDTAVYYCIREGDYFDYWGQGTTVTVSS
VL: DIVLTQTPLSLSVTPGQPASISCRASESVDSFGATFMHWYLQKPGQPPQLLIYLASNLESGVPDRFSGSGSGTDFTLKISRVEAEDVGVYYCQQNNEDPYTFGQGTKLEIKR
notes: Humanized IgG, human gamma 1 / kappa constant regions by vectors pCP-hCg1 and pCP-hck; also called H1573VH.1E + H1573Vk.2A
B9: Hu1573-14 (antibody, V domains shown)
VH: EVQLVESGGGLVQPGGSLRLSCAASGFTFSNYYLNWVRQAPGKGLEWVADIRLKSNNYEKHYAESVKGRFTISRDDSKNSVYLQMNSLKTEDTAVYYCIREGDYFDYWGQGTTVTVSS
VL: DIVMTQTPLSLSVTPGQPASISCRASESVDSFGATFMHWYLQKPGQPPQLLIYLASNLESGVPDRFSGSGSRTDFTLKISRVEAEDVGVYYCQQNNEDPYTFGQGTKLEIKR
notes: Humanized IgG, human gamma 1 / kappa constant regions by vectors pCP-hCg1 and pCP-hck; also called H1573VH.1E + H1573Vk.2B
B10: Hu1573-6 (antibody, V domains shown)
VH: EVQLVESGGGLVQPGGSLRLSCAASGFTFSNYYLNWVRQAPGKGLEWVADIRLKSNNYEKHYAESVKGRFTISRDDSKNSLYLQMNSLKTEDTAVYYCIREGDYFDYWGQGTTVTVSS
VL: DIVMTQTPLSLSVTPGQPASISCRASESVDSFGATFMHWYLQKPGQPPQLLIYLASNLESGVPDRFSGSGSGTDFTLKISRVEAEDVGVYYCQQNNEDPYTFGQGTKLEIKR
notes: Humanized IgG, human gamma 1 / kappa constant regions by vectors pCP-hCg1 and pCP-hck; also called H1573VH.1C + H1573Vk.2
B11: Hu1573-16 (antibody, V domains shown)
VH: EVQLVESGGGLVQPGGSLRLSCAASGFTFSNYYLNWVRQAPGKGLEWVADIRLKSNNYEKHYAESVKGRFTISRDDSKSSVYLQMNSLKTEDTAVYYCIREGDYFDYWGQGTTVTVSS
VL: DIVLTQTPLSLSVTPGQPASISCRASESVDSFGATFMHWYLQKPGQPPQLLIYLASNLESGVPDRFSGSGSGTDFTLKISRVEAEDVGVYYCQQNNEDPYTFGQGTKLEIKR
notes: Humanized IgG, human gamma 1 / kappa constant regions by vectors pCP-hCg1 and pCP-hck; also called H1573VH.1F + H1573Vk.2A
B12: Hu1573-3 (antibody, V domains shown)
VH: EVQLVESGGGLVQPGGSLRLSCAASGFTFSNYYLNWVRQAPGKGLEWVGDIRLKSNNYEKHYAESVKGRFTISRDDSKNSVYLQMNSLKTEDTAVYYCIREGDYFDYWGQGTTVTVSS
VL: DIVMTQTPLSLSVTPGQPASISCRASESVDSFGATFMHWYLQKPGQPPQLLIYLASNLESGVPDRFSGSGSGTDFTLKISRVEAEDVGVYYCQQNNEDPYTFGQGTKLEIKR
notes: Humanized IgG, human gamma 1 / kappa constant regions by vectors pCP-hCg1 and pCP-hck; also called H1573VH.1B + H1573Vk.2
B13: Hu1573-15 (antibody, V domains shown)
VH: EVQLVESGGGLVQPGGSLRLSCAASGFTFSNYYLNWVRQAPGKGLEWVADIRLKSNNYEKHYAESVKGRFTISRDDSKSSVYLQMNSLKTEDTAVYYCIREGDYFDYWGQGTTVTVSS
VL: DIVMTQTPLSLSVTPGQPASISCRASESVDSFGATFMHWYLQKPGQPPQLLIYLASNLESGVPDRFSGSGSGTDFTLKISRVEAEDVGVYYCQQNNEDPYTFGQGTKLEIKR
notes: Humanized IgG, human gamma 1 / kappa constant regions by vectors pCP-hCg1 and pCP-hck; also called H1573VH.1F + H1573Vk.2
B14: Hu1573-4 (antibody, V domains shown)
VH: EVQLVESGGGLVQPGGSLRLSCAASGFTFSNYYLNWVRQAPGKGLEWVGDIRLKSNNYEKHYAESVKGRFTISRDDSKNSVYLQMNSLKTEDTAVYYCIREGDYFDYWGQGTTVTVSS
VL: DIVLTQTPLSLSVTPGQPASISCRASESVDSFGATFMHWYLQKPGQPPQLLIYLASNLESGVPDRFSGSGSGTDFTLKISRVEAEDVGVYYCQQNNEDPYTFGQGTKLEIKR
notes: Humanized IgG, human gamma 1 / kappa constant regions by vectors pCP-hCg1 and pCP-hck; also called H1573VH.1B + H1573Vk.2A

Assays:
[1] = molecular target: T1, human Protein C (human, UniProt P04070 43-461); assay: ELISA, coated antigen
T1 construct: Zymogen used as negative control in the ELISA; also called human PC; hPC

[2] = molecular target: T2, human activated protein C (human, UniProt P04070 43-197; P04070 212-461); assay: ELISA, coated antigen
T2 construct: also called human aPC; human APC

[3] = molecular target: T3, cyno activated protein C (cyno (monkey)); assay: ELISA, coated antigen
T3 construct: also called cyno aPC; cyno APC

[4] = molecular target: T2, human activated protein C; assay: SPR (Biacore), 1:1 binding model
[5] = molecular target: T3, cyno activated protein C; assay: SPR (Biacore), 1:1 binding model

Row | Binder | binding result [1] | EC50 [2] [nM] | EC50 [3] [nM] | Kd [4] [nM] | koff [4] [s⁻¹] | kon [4] [M⁻¹ s⁻¹] | Kd [5] [nM] | koff [5] [s⁻¹] | kon [5] [M⁻¹ s⁻¹]
1 | B1 | no binding (tested: 20 nM) | 0.334 | 0.83 | 3.49 | 0.00811 | 2.32e+06 | 13.8 | 0.00766 | 555000
2 | B2 |  |  |  | 5.49 | 0.0052 | 948000 | 21.1 | 0.00725 | 344000
3 | B3 | no binding (tested: 20 nM) | 0.339 | 0.642 | 6.03 | 0.00844 | 1.4e+06 | 16.1 | 0.0054 | 337000
4 | B4 | no binding (tested: 20 nM) | 0.687 | 1.47 | 6.49 | 0.00896 | 1.38e+06 | 15.6 | 0.0042 | 269000
5 | B5 | no binding (tested: 20 nM) | 0.627 | 1.21 | 5.75 | 0.00833 | 1.45e+06 | 15.6 | 0.0042 | 269000
6 | B6 | no binding (tested: 20 nM) | 0.313 | 0.986 | 5.63 | 0.00815 | 1.45e+06 | 15.2 | 0.00724 | 475000
7 | B7 | no binding (tested: 20 nM) | 0.445 | 0.853 | 6.33 | 0.00857 | 1.36e+06 | 18.5 | 0.00471 | 255000
8 | B8 | no binding (tested: 20 nM) | 0.236 | 0.804 | 4.69 | 0.00655 | 1.4e+06 | 15 | 0.00343 | 229000
9 | B9 | no binding (tested: 20 nM) | 0.225 | 0.984 | 6.13 | 0.00856 | 1.4e+06 | 17.6 | 0.00524 | 299000
10 | B10 | no binding (tested: 20 nM) | 0.274 | 0.9 | 5.94 | 0.00848 | 1.43e+06 | 11.3 | 0.00707 | 627000
11 | B11 | no binding (tested: 20 nM) | 0.233 | 1.23 | 4.52 | 0.00643 | 1.42e+06 | 15.8 | 0.00373 | 236000
12 | B12 | no binding (tested: 20 nM) | 0.592 | 0.872 | 5.7 | 0.00818 | 1.44e+06 | 14.2 | 0.0105 | 743000
13 | B13 | no binding (tested: 20 nM) | 0.288 | 0.889 | 6.15 | 0.00845 | 1.37e+06 | 20.2 | 0.00452 | 225000
14 | B14 | no binding (tested: 20 nM) | 0.583 | 0.904 | 5.1 | 0.00772 | 1.52e+06 | 14.2 | 0.0105 | 743000

Reference: patent USRE49099 (Bayer, dated 2022)
